Data reported in the supplement of paper PMC9732359.
± gives the uncertainty stated by the source.

Assay: protein stability index of a GFP-peptide fusion (yeast GPS) (PSI 1-4); higher = more stable; sorted into four equal gates, so the index is relative within each strain
Method in brief: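 Mid-log yeast cultures in leucine-free medium, carrying a pooled plasmid library, were sorted into four equal gates by their GFP/Cherry fluorescence ratio. Each plasmid expressed Cherry along with GFP fused upstream of a tiled 17-residue yeast protein peptide. Plasmids recovered from each gate were PCR-amplified and Illumina-sequenced, with reads assigned to strains by barcodes. The protein stability index was obtained by summing each gate's read frequency weighted by its gate number.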

Sequence | protein stability index (doa10∆) | protein stability index (pdr5∆) | protein stability index (san1∆) | protein stability index (ubr1∆)
KAEKTLKSTKHSISEAE [SMC4] | 2.57 ± 0.068 | 1.99 ± 0.058 | 1.92 ± 0.063 | 2.5 ± 0.044
KAEYVDQYDAERDFYHS [RPO31] | 2.75 ± 0.061 | 2.97 ± 0.1 | 3.23 ± 0.097 | 3.16 ± 0.06
KAGKITTIEEIFLHSLP [RPS2] | 2.8 ± 0.11 | 2.69 ± 0.12 | 2.52 ± 0.082 | 2.94 ± 0.066
KAGLMTGGISGDANNRW [SMC1] | 2.38 ± 0.11 | 2.31 ± 0.088 | 2.54 ± 0.062 | 2.51 ± 0.074
KAGRAFHKYRLKRNSWP [RPL2A] | 2.87 ± 0.082 | 2.88 ± 0.063 | 2.13 ± 0.058 | 2.05 ± 0.064
KAGVKESDTGLAPSHLW [RPT1] | 2.93 ± 0.16 |  | 3.09 ± 0.12 | 
KALDELKPEIEKLTSKS [LRP1] | 2.86 ± 0.089 | 2.93 ± 0.077 | 2.93 ± 0.068 | 2.74 ± 0.066
KARAKKTKKEKGPNEEE [RPN2] | 3.45 ± 0.22 | 3.37 ± 0.15 | 3.43 ± 0.064 | 3.15 ± 0.18
KARFVSKLAEEKIRAAG [RPL28] | 2.508 ± 0.025 | 2.66 ± 0.027 | 2.6 ± 0.028 | 2.793 ± 0.024
KASSTPAGGLFGQASGA [YGL172W/NUP49] |  |  | 2.19 ± 0.26 | 
KAYVRLTADYDALDIAN [RPL25] | 2.94 ± 0.14 | 3.04 ± 0.15 | 3.17 ± 0.094 | 3.52 ± 0.091
KCKEVGITAVHVKIRAT [RPS14B] | 2.39 ± 0.063 | 1.64 ± 0.051 | 1.7 ± 0.1 | 2.19 ± 0.043
KCNDGVVFAVEKLITSK [PRE10] |  |  | 2.87 ± 0.22 | 
KDERGEGEAKQKRNAHG [ITC1] | 3.21 ± 0.18 | 3.69 ± 0.23 | 3.46 ± 0.098 | 3.34 ± 0.14
KDGETTDANGKTIVTGG [RPO26] | 3.39 ± 0.076 | 3.32 ± 0.047 | 3.37 ± 0.059 | 3.33 ± 0.047
KDIVNISIPKTCDEIQN [REC8] | 2.81 ± 0.067 | 2.74 ± 0.056 | 2.54 ± 0.05 | 2.84 ± 0.042
KDLENAQVEMKSLEEQE [SMC1] | 3.43 ± 0.14 | 3.12 ± 0.1 | 3.37 ± 0.085 | 3.3 ± 0.081
KDLSNYRKTEGIFEKAK [YMR153W/NUP53] | 3.01 ± 0.11 | 2.75 ± 0.1 | 3.04 ± 0.1 | 2.74 ± 0.086
KDLVIVSNLMGRNIGHP [RPB3] | 3.22 ± 0.051 | 3.1 ± 0.05 | 3.18 ± 0.039 | 2.88 ± 0.037
KDMSPILGELKRVKSYM [LRP1] | 2.43 ± 0.062 | 2.74 ± 0.056 | 2.51 ± 0.059 | 2.97 ± 0.038
KDPSPEILVLYNVCDTS [SIN4] | 2.8 ± 0.071 | 2.9 ± 0.06 | 2.82 ± 0.058 | 2.88 ± 0.12
KDQDSQIELSCNERVPL [SRP72] | 3.08 ± 0.08 | 3.12 ± 0.097 | 2.83 ± 0.056 | 3.01 ± 0.059
KDSLDNTFVTRLNNVFV [RPS4A] | 3.02 ± 0.11 | 3.02 ± 0.078 | 2.95 ± 0.085 | 2.95 ± 0.062
KDSLWQSEHLEAVVDQD [FAS1] | 3.43 ± 0.24 | 3.36 ± 0.14 | 3.46 ± 0.088 | 3.41 ± 0.09
KDWELEARFWHLVELLL [YDL116W/NUP84] | 2.26 ± 0.1 | 2.15 ± 0.086 | 1.92 ± 0.15 | 2.28 ± 0.062
KEDAKATMENIQKGKFT [SRP54] | 3.07 ± 0.055 | 3.29 ± 0.057 | 3.09 ± 0.062 | 3.08 ± 0.051
KEEFSSDESIERLMTWK [RRI2] | 2.49 ± 0.08 | 2.77 ± 0.076 | 2.55 ± 0.11 | 2.43 ± 0.17

Sequence | protein stability index (doa10∆) | protein stability index (pdr5∆) | protein stability index (san1∆) | protein stability index (ubr1∆)
KEEGLQQFNLHEILSEP [MED1] | 2.97 ± 0.15 | 3.21 ± 0.15 | 3.12 ± 0.12 | 2.62 ± 0.12
KEEQPKQIIVTRKAMLD [PRP8] | 2.62 ± 0.078 | 3.09 ± 0.082 | 2.71 ± 0.068 | 2.61 ± 0.049
KEHDEIEEQGDALQDVE [DPB4] | 3.17 ± 0.092 | 3.39 ± 0.12 | 3.36 ± 0.06 | 3.36 ± 0.067
KEIMDKIITSRPLQKIM [SIN4] | 2.13 ± 0.12 | 1.23 ± 0.068 | 1.45 ± 0.18 | 1.06 ± 0.065
KEKESKKDSKPAFSFGI [YLR335W/NUP2] | 2.96 ± 0.077 | 3.01 ± 0.068 | 3.19 ± 0.058 | 3.23 ± 0.059
KEKIQHELGINIDSLKF [BRR2] | 3.19 ± 0.065 | 3.07 ± 0.053 | 3.05 ± 0.043 | 3.22 ± 0.06
KEKVEEQEQQQQQIIKI [RPS20] | 3.16 ± 0.076 | 3.38 ± 0.11 | 3.19 ± 0.066 | 3.24 ± 0.091
KEKVSNGGVGVDVELIT [FAS2] | 2.96 ± 0.046 | 3.13 ± 0.062 | 3.11 ± 0.056 | 3.05 ± 0.05
KEKYGLAVSTILGKNFD [SMC1] | 2.98 ± 0.07 | 2.82 ± 0.066 | 2.69 ± 0.057 | 2.58 ± 0.05
KELFEKTFDYVSDHLDA [SMC1] | 3.35 ± 0.085 | 2.87 ± 0.068 | 2.9 ± 0.077 | 3 ± 0.049
KELNTERQIFLEACIVR [CDC53] | 2.09 ± 0.048 | 2.23 ± 0.072 | 2.5 ± 0.056 | 2.57 ± 0.047
KELQLEKESVEKQHENA [SMC3] | 3.02 ± 0.14 | 3.32 ± 0.099 | 2.85 ± 0.071 | 3.15 ± 0.054
KENDTVMNTKLLQEGGS [ESC2] | 3.16 ± 0.12 | 3.2 ± 0.092 | 3.04 ± 0.078 | 3.21 ± 0.076
KEPKKLLPNSKNVENTK [DSN1] | 3.12 ± 0.17 | 2.74 ± 0.15 | 2.59 ± 0.14 | 3.21 ± 0.083
KEPPRDRKKDKNVKHSG [RPL12A] | 3.29 ± 0.09 | 3.12 ± 0.084 | 3.22 ± 0.067 | 3.17 ± 0.061
KEPVDDKDVKAKYETSI [FAS2] | 3.2 ± 0.086 | 3.21 ± 0.12 | 2.43 ± 0.12 | 2.83 ± 0.13
KEQYNRYRDLMISCLMN [MTR3] | 2.07 ± 0.085 | 2.41 ± 0.053 | 2.4 ± 0.07 | 2.46 ± 0.086
KERNQKFQLQNQLEDFI [YIL149C/MLP2] | 3.05 ± 0.075 | 3.25 ± 0.066 | 2.78 ± 0.05 | 3 ± 0.053
KESDESKSAFSFGSKPT [YJL041W/NSP1] | 3.1 ± 0.048 | 3.22 ± 0.061 | 3.198 ± 0.029 | 3.108 ± 0.031
KESQLPRIQRADPVALY [RPB5] | 2.32 ± 0.069 | 2.63 ± 0.058 | 2.5 ± 0.089 | 2.59 ± 0.048
KFELGRQPANTKIGAKR [RPS8A] | 2.87 ± 0.06 | 3.1 ± 0.068 | 2.91 ± 0.11 | 3.18 ± 0.055
KFFIMIVKGNIIDEIKC [POP4] | 1.32 ± 0.055 | 1.47 ± 0.055 | 1.49 ± 0.094 | 1.66 ± 0.056
KFLILNENPINKIMTNQ [NUT1] | 2.9 ± 0.11 | 2.75 ± 0.1 | 2.67 ± 0.07 | 2.99 ± 0.089
KFQKLLQNSERDVELSS [SMC4] | 2.82 ± 0.065 | 3.18 ± 0.048 | 2.94 ± 0.041 | 3.05 ± 0.052
KFSDIIQGISKMYSDDT [BRN1] | 2.93 ± 0.062 | 2.71 ± 0.066 | 2.14 ± 0.08 | 2.3 ± 0.085
KGLLIWRLLFIDKFIMV [GRR1] | 1.43 ± 0.062 | 1.35 ± 0.048 | 1.41 ± 0.089 | 1.5 ± 0.052
